In US20200247894A1 (Regeneron, published 2020):

T1: mouse IL-2Rγ endogenously expressed on MC/9 cells (mouse, UniProt P34902 23-369)
T1 construct: whole, on cells
T1 sequence (looked up): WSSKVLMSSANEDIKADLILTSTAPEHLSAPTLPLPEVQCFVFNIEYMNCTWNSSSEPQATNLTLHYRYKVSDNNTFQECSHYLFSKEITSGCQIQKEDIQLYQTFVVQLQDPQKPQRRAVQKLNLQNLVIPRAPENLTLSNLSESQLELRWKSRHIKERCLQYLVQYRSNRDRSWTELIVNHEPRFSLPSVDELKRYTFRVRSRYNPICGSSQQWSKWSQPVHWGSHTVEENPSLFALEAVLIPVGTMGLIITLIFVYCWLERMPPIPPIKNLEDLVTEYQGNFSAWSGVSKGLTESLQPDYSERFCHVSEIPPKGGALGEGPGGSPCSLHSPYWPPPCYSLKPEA

T2: human IL-2Rγ endogenously expressed on NK-92 and Jurkat cells (human, UniProt P31785 23-369)
T2 construct: whole, on cells; on cells it stands with the other receptor subunits of the cell line; also called IL-2Rg; CD132
T2 sequence (looked up): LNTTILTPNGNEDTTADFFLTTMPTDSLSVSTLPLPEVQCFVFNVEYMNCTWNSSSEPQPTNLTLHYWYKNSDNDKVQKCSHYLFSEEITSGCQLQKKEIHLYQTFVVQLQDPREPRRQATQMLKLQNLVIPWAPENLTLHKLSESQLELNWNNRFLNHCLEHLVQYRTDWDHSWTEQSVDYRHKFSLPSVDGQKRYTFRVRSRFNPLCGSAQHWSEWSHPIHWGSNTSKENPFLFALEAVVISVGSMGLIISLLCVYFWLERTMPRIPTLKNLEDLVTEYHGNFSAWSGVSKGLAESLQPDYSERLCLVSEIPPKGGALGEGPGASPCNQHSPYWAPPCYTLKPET


Tests used:
[1] = molecular target: T1, mouse IL-2Rγ endogenously expressed on …; test: flow cytometry, 10 ug/ml antibody, MC/9 cells (endogenous mouse IL-2Rg)
Description: (§1) For flow cytometry analyses, the cells were pre-incubated with mouse IgG at 100 μg/ml for 15 minutes at room temperature (RT) to block the binding of the antibodies to Fc receptors. […] Cells were washed, fixed using BD CytoFix™ (BD biosciences, #554655) and analyzed on an IQue® (Intellicyt®) Flow Cytometer or Accuri Flow cytometer (BD). […] The results were analyzed using ForeCyt® (IntelliCyt®) software to determine the geometric means of fluorescence (MFI) for viable cells. Binding ratios were calculated by normalizing the MFI of the test sample by the MFI of the unstained sample.

[2] = molecular target: T2, human IL-2Rγ endogenously expressed on …; test: flow cytometry, 10 ug/ml antibody, NK-92 cells (endogenous human IL-2Rg)
Description: as §1

[3] = molecular target: T2, human IL-2Rγ endogenously expressed on …; test: flow cytometry, 10 ug/ml antibody, Jurkat cells (endogenous human IL-2Rg)
Description: as §1

Row | Binding Ratio (Sample over unstained MFIs) [1] | Raw MFI [1] [MFI] | Binding Ratio (Sample over unstained MFIs) [2] | Raw MFI [2] [MFI] | Binding Ratio (Sample over unstained MFIs) [3] | Raw MFI [3] [MFI] | Binder
1 | 1 | 185 | 87 | 13000 | 13 | 1170 | H4H12863P (antibody, human IgG4 S228P, kappa, V domains shown, fully human anti-IL2Rg antibody, human IgG4) VH: QVQLVESGGGVVQPGRSLRLSCTASGFTFRSYDMYWVRQAPGKGLEWVSVITYDGNNKYYADSVKGRFTISRDNSKNTLFLQMSSLRPEDTAVYYCAKRGLIWVGESFDYWGQGTLVTVSS VL: DIQMTQSPSTLSASVGDRVTITCRASQSINSWLAWYQQKPGKAPNLLIYKASSLESGVPSRFSGSGSGTEFTLTISSLQPDDFATYYCQQYKSYSWTFGQGTKVEIKR
2 | 1 | 185 | 32 | 4720 | 6 | 488 | H4H12886P (antibody, human IgG4 S228P, kappa, V domains shown, fully human anti-IL2Rg antibody, human IgG4) VH: EVQLVESGGGLVKPGGSLRLSCAASGFTFSTAWMSWVRQSPGRGLEWVGRMKSKTDGGTTFYAAPVKGRFTISRDDSKNTLYLQMNSLKTEDTAVYYCTTGLVPAFYKYYGVDVWGQGTTVTVSS VL: DIQMTQSPSSLSASVGDRITITCQASQDITNYLNWYQQKPGKAPNLLIYDASNLVTGVPSRFSGSGSGTDFTFTILSLQPEDIATYYCQQYDSLLTFGPGTKVDIKR
3 | 1 | 202 | 44 | 6580 | 6 | 507 | H4H12874P (antibody, human IgG4 S228P, kappa, V domains shown, fully human anti-IL2Rg antibody, human IgG4) VH: QVQLVESGGGVVQPGRSLRLSCAASGFNFRNFGMHWVRQAPGKGLEWVAGILYDGSSKYYADSVKDRFTISRDNSKNTLFLQMNSLRAEDTAMYYCAKEEDTAMVPFDSWGPGTLVTVSS VL: DIQLTQSPSFLSASVGDRVTITCWASQGISSYLAWYQQKPGKAPTLLIYAASTLQSGVPSRFSGSGSGTEFTLTISSLQPEDFASYYCQQLKSYPLTFGGGTKVEIKR
4 | 1 | 128 | 28 | 4200 | 1 | 110 | H4H12900P (antibody, human IgG4 S228P, kappa, V domains shown, fully human anti-IL2Rg antibody, human IgG4) VH: QVQLVESGGGLVKPGGSLRLSCEASGFTFNDFYMTWIRQAPGKGLEWIAYISKSGDKMRYADSVKGRFSTSRDNAKNSLSLQMNSLRAEDTAVYYCARFYGDIWGQGTLVTVSS VL: DIQLTQSPSFLSASVGDRVTITCWASQDISSFLVWYQQKPGKAPNLLIYAASALQSGVPSRFSGSGSGTEFTLTISSLQPEDFASYYCEQLNNYPWTFGQGTKVEIKR
5 | 1 | 167 | 18 | 2670 | 1 | 114 | H4H12899P (antibody, human IgG4 S228P, kappa, V domains shown, fully human anti-IL2Rg antibody, human IgG4) VH: QVQLVESGGDLVKPGGSLRLSCATSGFTFSDFYMTWIRQAPGKGLEWISYISNSGSIVKYADSVKGRFTISRDNAKNSLYLQMNSLRAEDTAIYYCARFYGDRWGQGTLVTVSS VL: DIQLTQSPSFLSASVGDRVTITCWASQGISTFLAWYQQKPGKAPKLLIYAASTLQSGVPSRFSGSGSGTDFTLTISSLQPEDFATYHCQQLNNYPWTFGQGTKVEIKR
6 | 1 | 172 | 90 | 13500 | 16 | 1420 | H4H12884P (antibody, human IgG4 S228P, kappa, V domains shown, fully human anti-IL2Rg antibody, human IgG4) VH: QVQLQESGPGLVKPSQTLSLTCTVSGGSISSGGYYWSWIRQHPGKGLEWIGFIYYSGKTYYNPSLKSRLTISVDTSKSQFSLKLRSVTAADTAVYYCARLGYTNSAGWFDPWGQGTLVTVSS VL: DIQMTQSPSSLSASVGDRVTITCRASQSISSYLNWYQQKPGKAPNLLIYAASSLQSGVPSRFSGSGSGTDFTLTISSLQPEDLATYYCQQSYTTPFTFGPGTKVDIKR
7 | 1 | 170 | 30 | 4570 | 6 | 500 | H4H12890P (antibody, human IgG4 S228P, kappa, V domains shown, fully human anti-IL2Rg antibody, human IgG4) VH: EVQLVESGGGLVQPGGSLRLSCAASGFTFNNYAMHWVRQAPGKGLEYVSSISSSGGSTYYEDSVKGRFTISRDNSKNTLYLQMGSLRAEDMAVYYCARSFYGSGTYYDTFDMWGQGTMVTVSS VL: DIQMTQSPSSLSASIGDRVTITCRASQSISRYLNWYQQKPGKAPKLLIYAASSLQSGVPSRFSASGSGTDFTLTISSLQPEDFATYYCQQSYSTPFTFGQGTKLEIKR
8 | 1 | 91 | 94 | 14100 | 19 | 1660 | H4H12889P (antibody, human IgG4 S228P, kappa, V domains shown, fully human anti-IL2Rg antibody, human IgG4; also called REGN7257) VH: EVQLVESGGGLVQPGGSLRLSCAASGFIFSSYEMHWVRQAPGKGLEWISYISSSGTTIYYADSVKGRFTISRDNAKNSLYLHMNSLRAEDTAVYYCTRARITGTFDVFDIWGQGTMVTVSS VL: DIQMTQSPSSLSASVGDRVTITCRASQSISSYLNWYQQKPGKAPKLLIFAASNLQSGVPSRFSGSRSGTDFTLTISSLQPEDFATYYCQQNYNIPYTFGQGTKLEIKR
9 | 1 | 184 | 92 | 13700 | 18 | 1620 | H4H12871P (antibody, human IgG4 S228P, kappa, V domains shown, fully human anti-IL2Rg antibody, human IgG4; also called REGN9434) VH: QVQLQESGPGLVKPSQTLSLTCTVSGGSITSGGYYWSWIRQYPGQGLEWIGYIYYSGKTYYNPSFTSRITISVDTSKKQFSLKMSSVTAADTAVYYCARAGFTSSNGWFDPWGQGTLVTVSS VL: DIQMTQSPSSLSASVGDRVTITCRASQNIRSYLNWYQQKPGKAPKLLIYSASSLQSGVPSRFSGSGSGTDFTLTISSLQPEDFPTYYCQQTYSSPWTFGPGTKVEIKR
10 | 1 | 201 | 1 | 176 | 1 | 89 | H4H12859P (antibody, human IgG4 S228P, kappa, V domains shown, fully human anti-IL2Rg antibody, human IgG4) VH: QVQLVQSGAEVKKPGASVRVSCKASGYTFTDYDIHWVRQAPGHGLEWMGWINPNSGGTNYAQKFQGRVTMTRDTSISTVYMDLSRLRSDDTAVYYCARADYSSSYYYYGMDVWGQGTTVTVSS VL: not shown
11 | 1 | 154 | 17 | 2540 | 1 | 86 | H4H12908P (antibody, human IgG4 S228P, kappa, V domains shown, fully human anti-IL2Rg antibody, human IgG4) VH: EVQLVESGGRLVQPGGSLRLSCEASGFTFSNYGMTWVRQAPGKGLEWVSVISGSDNRKYYAESVKGRFTISRDNSKNTLYLQMNSLRAEDTAVYYCAKLGYSRSSKDFYYGMDVWGQGTTVTVSS VL: not shown
12 | 1 | 199 | 2 | 228 | 1 | 99 | H4H12858P (antibody, human IgG4 S228P, kappa, V domains shown, fully human anti-IL2Rg antibody, human IgG4; also called REGN9433) VH: EVQLVESGGDLVQPGGSLRLSCTASGFIFRNYAMNWVRQAPGKGLEWLSGILGSNDNTYYVDSVKGRFTISRDNSRNTLYLQMNSLRAEDSAVYYCAKGDAGGFDYWGQGTLVTVSS VL: DVVMTQSPLSLPVILGQPASISCRSSQSLVSSDGNTYLNWFQQRPGQSPRRLIYKVSNRDSGVPDRFSGSGSGTDFTLKISRVEAEDVGAYYCMQGSYWPPTFGQGTKLEIKR
